Results: paper PMC11162425

Biological target: Lcl C-terminal domain (Lcl-CTD, residues 252 to 401) (Legionella pneumophila strain 130b)
Assay: SEC-MALS

Q: Which stoichiometry N does the source give for “Lcl C-terminal domain (Lcl-CTD, residues 252 to 401) (domain or fragment)” here?
A: 3
